Results: PMC2424174 (2008)
Where no end group is shown, it is not given here. Ahx = NCCCCCC(=O)O

What was measured:
[1] = target: Nucleolin (cell surface, HUVECs) (Homo sapiens, UniProt P19338); test: iodinated HB-19 cell binding displaced by unlabeled HB-19
[2] = target: Nucleolin (cell surface, MDA-MB-231 cells) (Homo sapiens, UniProt P19338); test: as above
Nucleolin (cell surface, MDA-MB-231 cells), sequence (P19338 2-710): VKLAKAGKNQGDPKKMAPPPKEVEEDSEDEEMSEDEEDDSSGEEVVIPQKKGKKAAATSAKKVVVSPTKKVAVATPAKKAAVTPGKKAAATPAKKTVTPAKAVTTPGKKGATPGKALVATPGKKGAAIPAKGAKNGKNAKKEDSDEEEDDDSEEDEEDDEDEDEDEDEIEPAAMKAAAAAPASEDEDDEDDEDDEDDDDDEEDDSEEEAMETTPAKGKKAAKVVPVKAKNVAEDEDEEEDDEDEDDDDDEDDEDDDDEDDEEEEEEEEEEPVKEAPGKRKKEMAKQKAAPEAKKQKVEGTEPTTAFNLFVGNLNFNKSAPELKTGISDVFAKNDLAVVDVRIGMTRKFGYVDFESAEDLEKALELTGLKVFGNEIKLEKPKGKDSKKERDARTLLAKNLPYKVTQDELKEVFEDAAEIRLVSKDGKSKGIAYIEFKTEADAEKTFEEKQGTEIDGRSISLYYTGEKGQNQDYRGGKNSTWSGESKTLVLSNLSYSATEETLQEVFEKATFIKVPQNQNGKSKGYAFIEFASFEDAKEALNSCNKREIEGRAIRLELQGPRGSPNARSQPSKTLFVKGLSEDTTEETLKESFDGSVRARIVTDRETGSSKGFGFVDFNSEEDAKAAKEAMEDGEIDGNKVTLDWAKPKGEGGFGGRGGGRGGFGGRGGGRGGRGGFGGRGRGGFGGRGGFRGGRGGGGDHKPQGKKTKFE

Nucleolin (cell surface, HUVECs), sequence (P19338 2-710): as above

B1: HB-19 pseudopeptide (peptide)
chain: KKKGPKEK-{Ahx-NH2}
modifications: also: pentavalent Lys-psi(CH2N)-Pro-Arg on template, attachment places not given here, reduced psi(CH2N) bond Lys-Pro
In the case of B1, the Kd [1] is reported as 825 nM and the Kd [2] is reported as 312 nM.
